Measured values from patent US20260209387A1, “SINGLE-DOMAIN ANTIBODY FOR INHIBITION OF NEUTROPHIL ELASTASE ACTIVITY” (UNIVERSITE DE LIEGE, priority 2023, published 2026).

Tests used:
[1] = system: mouse pancreatic elastase (mPE); assay: BLI binding to other serine proteases: mPE; conditions: 50 nM protease
Method: (§1) The specificity of NbE201 for hNE was also investigated by BLI. Biotinylated NbE201 (10 μg/mL) was immobilized on streptavidin biosensors (SA, Sartorius) following provider's indications. The biosensors were then immersed in a 50 nM solution of a serine protease. The proteases tested were human cathepsin G (hCG), human proteinase 3 (hPR3), mouse pancreatic elastase (mPE), mouse neutrophil elastase (mNE) and porcine pancreatic elastase (pPE). hNE was used a positive control. The association and dissociation were measured for 70 s and 320 s respectively, in kinetic buffer (KB, Sartorius). The experiments were carried out at 30° C. in 384-wells black-bottom microplates in polypropylene (Greiner Bio-One, Belgium) and with orbital agitation (1000 rpm).

[2] = system: hNE-induced alveolar-capillary damage; assay: hNE-induced acute lung injury mouse model; type: in vivo, mice; conditions: nasal instillation 15 min prior to hNE 25 μg; molar ratio Nb/HNE 4/1
Method: The in vivo efficacy of NbE201 was determined using a mouse model of acute lung injury induced by nasal instillation of HNE (L agente et al., 2009, American Thoracic Society International Conference Abstracts. (American Thoracic Society), A5668. doi: 10.1164/ajrccm-conference.2009.179.1_MeetingAbstracts.A5668). […]
It was determined with the hemoglobin assay kit (Sigma) and performed according to the manufacturer's instructions. […] A measurement of the optical density at 400 nm allowed the quantification of this stable complex. […]
Histological sections of the lung were digitized using a panoramic scan 2 (3[…]). […] This semi-automated analysis made it possible to quantify the damaged alveolar surface. […] The percentage of injured surface was determined by the ratio: % injured area=(injured area/alveolar area)×100

[3] = target: T1, hNE (Homo sapiens, UniProt P08246); assay: BLI specificity assay, hNE positive control; type: binding; conditions: 50 nM protease
T1 construct: purchased Elastin Products Company (EPC)
T1 sequence (P08246 30-247): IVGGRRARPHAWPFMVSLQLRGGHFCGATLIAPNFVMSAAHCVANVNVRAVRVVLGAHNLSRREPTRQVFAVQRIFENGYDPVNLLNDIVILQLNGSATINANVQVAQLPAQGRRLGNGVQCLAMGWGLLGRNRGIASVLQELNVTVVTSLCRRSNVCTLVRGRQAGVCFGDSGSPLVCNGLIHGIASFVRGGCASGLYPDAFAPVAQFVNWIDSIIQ
Method: as §1

[4] = target: T1, hNE; assay: Stability of NbE201 towards hNE (SDS-PAGE, 37° C.); type: in vitro ADME
Method: NbE201 (26.4 μM) was incubated at 37° C. alone or in the presence of hNE ([NbE201]: [hNE]=4:1). Aliquots (10 μL) taken at different time intervals were mixed with 4 μL of sample loading buffer (Tris-HCl (pH 6.8), SDS denaturant (4%, % w/v), β-mercaptoethanol (5%, % v/v), bromophenol blue (0.01%, % w/v), glycerol (20%, % v/v), H2O)) and then stored at −20° C. until analysis by SDS-PAGE using 4-20% Mini-PROTEAN TGX Protein Gel, 10 wells, 50 μL (Bio-Rad, Germany). Then, the gel was stained by Coomassie blue, destained in water and imaged using a Gel Doc EZ Imager (Biorad). The relative amount of intact protein was quantified by densitometry analysis with a Gel Doc EZ Imager program using the intensity of the band at time zero as the relative standard. hNE alone was incubated on similar conditions and an aliquot was taken at different time points to measure its activity using N-Succinyl-Ala-Ala-Ala-paraNitroAnilide as substrate as describe above.

[5] = target: T1, hNE; assay: Affinity of NbE201 for hNE by BLI; type: binding
Method: The affinity of NbE201 for hNE and mNE was measured by BLI with the Octet HTX machine using various settings. […] For hNE, the biotinylated NbE201 (0.5 μg·mL^−1) was immobilized on streptavidin biosensors (SA, Sartorius) following the provider's indications. Then, the biosensors were immersed in a solution of hNE at different concentrations (25-6.25-3.125-1.5163-0.753 nM). Association and dissociation kinetics were measured for 180 s and 300 s respectively, in 10×KB buffer. All the experiments were carried out at 30° C. in 96-wells or 384-wells black-bottom microplates in polypropylene (Greiner Bio-One, Belgium) and with orbital agitation (1500 rpm). The sensorgrams obtained were fitted globally to a 1:1 model to derive the rate constants for association (kon) and dissociation (koff) and the equilibrium dissociation constant (KD=koff/kon). […] were carried out. The error on KD was calculated using the following equation: […]

[6] = target: T2, human cathepsin G (hCG) (Homo sapiens, UniProt P08311); assay: BLI binding to other serine proteases: hCG; conditions: 50 nM protease
T2 construct: purchased Calbiochem
T2 sequence (P08311 21-244): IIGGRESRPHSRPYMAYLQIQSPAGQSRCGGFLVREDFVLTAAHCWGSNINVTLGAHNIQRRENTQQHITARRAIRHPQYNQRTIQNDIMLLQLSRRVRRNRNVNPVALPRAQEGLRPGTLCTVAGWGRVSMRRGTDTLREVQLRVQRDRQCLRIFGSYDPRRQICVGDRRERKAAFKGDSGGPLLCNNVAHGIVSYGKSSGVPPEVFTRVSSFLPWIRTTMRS
Method: as §1

binding to mPE by BLI [1]: does not bind to the other proteases
binding to hNE by BLI (positive control) [3]: association signal
affinity for hNE relative to mNE ([5]; hNE vs mNE): about 10 times
koff ([5]; hNE, BLI): 3.2 ± 0.2 · 10^−3 s^−1
kon ([5]; hNE, BLI): 2.6 ± 0.9 · 10^6 M^−1 s^−1
binding to hCG by BLI [6]: does not bind to the other proteases
B1: NbE201: anti-hNE ISVD (VHH/nanobody) from immunized lama, amino acid sequence SEQ ID NO: 4 (protein)
VHH: QVQLQESGGGLVQAGGSLRLSCVVPGRTISLYRMGWFRQAPGKEREFVAGINWSGDMTDYVDSVKGRFTISRDNAKNTVYLEMNSLKPEDTAIYYCTADPKLLPLADSSYGYWGQGTQVTVSS
protection against hNE-induced alveolar-capillary damage [2]: protects the lungs from developing alveolar-capillary damage
time NbE201 is stable in presence of hNE ([4]; 37° C., [NbE201]:[hNE] 4:1): 14 days
percentage of remaining complex (intact NbE201) over time ([4]; in presence of hNE, [NbE201]:[hNE] 4:1, 37° C., 14 days): around 100%
